In a protein production outcome set (Wang et al. 2014):

Assay: label from the status in PepcDB records

Sequence	protein production
MQHLDLQVVRKALKWSVGGERVWFCTVLTTYGSAPRAPGSLLAVNASGEWIGSLSGGCVEDDFLERVAAGGFPDPAVIVRYGEGDDPNSNIRLPCGGILDVLVENLAPDCDVQAHLRELESALLGQRRLLREVELGSGARSLRDDSSHGPRAERDGECVRLRVGAAQRLLLAGYSSVAHACAEFGKGLGFEVILCDPREEALRGVVLEGIEIRRELPSLFIADGGCHADTAVVALTHDPKIDDLAMLEAVRTEAFYIGVMGSRATSEKRFERLRRIGGLGDAELARIHAPIGLNLGSKTPAEIALAVLADILRIRNGIPRERL	failed
MQHNELKTPYFMINEDKLIANLEKAKQLKEISGVKLVLALKCFSTWGVFDIIKPYLDGTTSSGPFEVKLGYETFGGETHAYSVGYSEDDVREVADICDKMIFNSQSQLAAYRHIVEGKASIGLRLNPGVSYAGQDLANPARKFSRLGVQADHIKPEVFEGIDGVMFHMNCENKDVDAFIGLLDAISEQFGEYLNKLDWVSMGGGVFFTWPGYDIEKLGLALKAFSEKHGVQMYLEPGEAIITKTTDLVVTVVDIVENVKKTAIVDSATEAHRLDTLIYNEPASILEASDNGEHEYVIGSCSCLAGDQFCVANFDQPLEIGQRLHILDSAGYTMVKLNWFNGLRMPSVYCERSSGEIQKLNEFDYSDFKRSLSQWSVK	failed
MQIFETILIFLALVILSSFLHTFLPKIPLAFIQIILGMLLYVTPIPVQFNFDSELFMVALIAPLLFVEGVKVSRVHLRRYIKPVLMMALGLVVTTVIVVGLFVHWIWPELPMAAAFALAAILCPTDAVAVQAITNGKVLPKGSMTILEGESLLNDAAGIISFKIAVAALITGGFSMVNAVEQFLISSIGGFIVGLLIGVALVRFRVTLSRRGIENINMFTFIQLVTPFITYIVAEMFHASGIIAAVVAGLVHGFERDRIAQARTRLQMSYNHTWNILGYALNGFVFSILGFLIPEVVGRIIENEPHNLIFLITVTCLIALAIYLFRFLWVFVLYPYFYLPVSPFQKMISHNEDDQKTAETPPKRGMYAFIMTLCGVHGTISLAIALTLPYMLADHHSFIFRDDLLFIASGMVIISLIVAQMILPVVTPNAKKPKIVGMNFKQARVYILEKVIDSLNQQSSVTSSFQYGNVIKDYHDKLAFLRTVENEDENTKELQRLQKLAFDVENQTLNGLVENGDITTNVLDNYMRYTERTQVYKQASLLQRIKVEVRAMILKRRIRTKVKTNAASPLSVVDNLREISNIMRTVHYRVVSRLGKETTENNKLEVGMICDSYLIRIDNLTPSNFFNPKNENSITKIKLSALKEQRRILNQLVEDEEVSEVTALKIREAINYDEMIIVDSSTD	failed
MQILEDFDGKALPKLETDRLILRQRTVGDVPAMFDYVCLEEVAYPAGLSPIASLEDEYDYFENRYYQNLEKAKLPSGYGITVKGSDRIIGSCAFNHRHEDDVFEICYLLHPDYWGHGYMTEAVAALIEVGFTLLNLHKIEIRCYDYNKQSRRVAEKLGFTLEATIRDRKDNQDNRCVNLIYGLLRSEWE	failed
MQIVQIARPGSMKGWIRKAVARYAHATGRGGKFYRRFCNPSGLEWGAYLARWGNFHSVGSNFYVNTGCKFLDPSLVRIGNSVGLSDCTLIGHDGVVLLIEHRFGKHLDSVGFIDIKDNCFIGHGAIVMPRVTIGPESIVAAGAVVTKDVPPGTVYGGNPAEFICTTEQLIKRVEARCEAYPWIDLVKQRNGAYDPEVEPLLMAQRRQYFFGDSLEHHHHHH	failed
MQKFLDWLERVLTPLAKVIGENKYLVAIRDGFLLSTPLLIVGSVFLLIANFPLPQWDTWMSHLLGKDWATMMSVPASASFDVMTILAVVGIAYSLGKQFNVDAMQAGIIALVSFFIVTPYQTLFTPENSSKVYEVTSLPLKWMGSSGLFLGMIVALIATRLFVAIVRKGWTIKMPEGVPPTVVKSFEALIPSFLVVTLMFLVNWLAALTPYGNLQDVIFEFLQTPLLSLGNTLGAMSIAYLFLHFFWFFGINGGSVVGAVFNPVLRALSVENLQAFKDGHEIPNIITGQFQDMFATFGGAGSTLSLIIVMVLFCKSQRIKKLSQLSLIPGVFGINEPIIFGLPIVLNPILLIPFVLVPAINIIIAYFAMDWGLVPLTNGIQLPWTTPPIISGFLVSGWQGSILQALLLVLGMFIYYPFIRVMDDQYLREEWKAQEEESEEIDFDSFDFDDL	failed
MQKIVIVANGAPYGSESLFNSLRLAIALREQESNLDLRLFLMSDAVTAGLRGQKPGEGYNIQQMLEILTAQNVPVKLCKTCTDGRGISTLPLIDGVEIGTLVELAQWTLSADKVLTF	not failed
MQKKQVIAVLVAVVGIGIVFSLPKVLVDNEKESVEGAEVTVAHEDSLSEVGKLMAEKHTHKPSDSEQKKLQDFTKNYYSISDKEKKRIFADSILGYYNKFHKYDSVAKYSGEIAMLQPNEKNLLSAADAYMQASDLVSVNEKSAYMDKSRLYYEKALDINASNLDTKSKLAMTYVTTSNPMTGIRILQEVVKEDPRNETAIFNLGYLSMQSRQYNKAVDRFKSLIEINPAHASGTFYLGLSYLELGNKGKANQYFMKAKGLDSDPEFQAIIDSYLKESN	failed
MQLPLHQVAQPAFYISVVPDMVGGRLSSHDRDLLGLAHQLAGQDGAVLAVVFGEHKESAFATAGVDRLLVLQGSEFEGYAPEQRVQGLRAVDNQFSPRHWLLPDSRTGGGELGRRFAAALGERPATRVWQVKDGQCIGRAGAGLQDLARPVVRLILAAAECAEPVSETRHEALPVELSTSVARSLARIEDLGAVAVDPAAIPMAEAEFIFSGGNGVKDWPLFHQTAAALGATEGASRVAVDDGFMARDRQVGASGIWVTARVYVAVGISGAIQHLQGIGACDKVVAINLDPGCDMIKRADLSVIGDSAEILKALIAAVAAYRNDAKRDAA	failed
MQLPTQQVAVLDAASTDDPQRIEALAADTDYPPETIAGAALALEAEGLVAVTETTTTTVSLTDEGHAYATDGLPEVRLYRAALDAGADDAPVEMGSVIGAAGLDGPQVDIALSNYARKGYGTIDSGALAADPDADPENDPEADALATLTDGDSVDDDAVVDQLASRDLVTVSERTVRSVTLTEAGVTELMAGVEATDEVGELTPELLASGEWADVEFADYNVAADAADHTPGKTHVLRQAAERVTDVLVGMGFQEMAGPHVDADFYINDCLFMPQDHPARNHWDRFALSNPARIDELPDALVERVERAHREGAGDDGDGYHSPWDEDFARALALRGHTTSLTARHLAGLADADVEAPARYFSVEKAYRNDTLDATHLLEFFQIEGWVLADDLSVRDLMGTFREFYSQFGIHDLQFKPTYNPYTEPSFELFGRHPETGELIEIGNSGIFRPEMLDPLDVDGDVMAWGLALERLLMLMTGFEDIRDVHGTLCDVGFLRNAEVVY	failed
MQLVVARIGRAHGIKGEVTVEVRTDEPELRLGPGAVLATDPASVGPLTIETGRVHSGRLLLRFEGVRDRNGAEALRNTLLIAEVDPDEVPEDPDEYYDHQLMDLDVVTKDGTEVGRITEISHLPSQDLFVVERSDGSEVYIPFVEEIVVEIDLEEQRAVIDPPPGLIDDRAEVDSSDTEAATEADALEHHHHHH	not failed
MQMDSAQNQFNKRARLFEDPELKDAKVIYPSNPESTEPVNKGYGGSTAIQSFFKESKAEETPKVLKKRGRKKKNPNPEEVNSSTPGGDDSENRSKFYESASARKRTVTAEERERAVNAAKTFEPTNPYFRVVLRPSYLYRGCIMYLPSGFAEKYLSGISGFIKLQLGEKQWPVRCLYKAGRAKFSQGWYEFTLENNIGEGDVCVFELLRTRDFVLEVTAFRVNEYV	failed
MQMSMLTRLHYFNCVVETGSISKASRIFDVQPSSISRQLTALEKELGVLLLKRTSRNIGLTEAGQTYYKYSQKIVSDLDEARCAVNDLQQKPKGNLKVSMAVGFAECCILPMIPTFTKLYPEINLELEMTGRVVDLVEENVDVAIRTGRLRDSNLIALKLTSNNFLLCASPQYITEHGTPKSPFNLTDFECIRYEYAGWRDWYLMNDKPTKLTIKSGLTVRSINGQKQLILNHAGLALMPKWSVINELDNGTLVQVLEQNIFSPYESMSSTYAIYLKRELISPKVRVFIDFIKDHIDYNS	failed
MQNIRVVLARPNHPGNIGSAARAMKTMGLSRLYLVEPKVFPSEEANALASGAVDLLENATVVGSLREALSDVTVACALTSRRRELTTPLSTPRQTTPELIARARDGEQVALVFGNETFGLSIEEVEQCNRLVTIPGNPDYFSLNLAMAVQVMTYELFSHTGVDVEYLRAEGEAATQSEVDGMCGHLEQAMDEIGYFQRRNSERLMRRMRTMFHRAGMLREEIDILRGFYKQVQRTASGRSGDAD	failed
